Residue numbers refer to the chain shown, from its start.
Assays:
[1] = biological target: rat CD5 antigen present on rat T cells (rat) (UniProt P51882); assay: flow cytometry, rat blood cells 3 h after 0.5 mg/kg i.v.
[2] = biological target: rat CD5 antigen present on rat T cells (rat) (UniProt P51882); assay: flow cytometry, rat spleen cells 3 h after 0.5 mg/kg i.v.
[3] = biological target: rat CD5 antigen present on rat T cells (rat) (UniProt P51882); assay: flow cytometry, rat lymph node cells 3 h after 0.5 mg/kg i.v.
[4] = biological target: T1, human CD5 cell differentiation marker (human, UniProt P06127 25-495); assay: FACS-based competitive assay, experiment 1; reference mouse H65 = 100%
T1 construct: whole, on cells; Cell-surface CD5; also called CD5 antigen; gp67
T1 sequence (looked up): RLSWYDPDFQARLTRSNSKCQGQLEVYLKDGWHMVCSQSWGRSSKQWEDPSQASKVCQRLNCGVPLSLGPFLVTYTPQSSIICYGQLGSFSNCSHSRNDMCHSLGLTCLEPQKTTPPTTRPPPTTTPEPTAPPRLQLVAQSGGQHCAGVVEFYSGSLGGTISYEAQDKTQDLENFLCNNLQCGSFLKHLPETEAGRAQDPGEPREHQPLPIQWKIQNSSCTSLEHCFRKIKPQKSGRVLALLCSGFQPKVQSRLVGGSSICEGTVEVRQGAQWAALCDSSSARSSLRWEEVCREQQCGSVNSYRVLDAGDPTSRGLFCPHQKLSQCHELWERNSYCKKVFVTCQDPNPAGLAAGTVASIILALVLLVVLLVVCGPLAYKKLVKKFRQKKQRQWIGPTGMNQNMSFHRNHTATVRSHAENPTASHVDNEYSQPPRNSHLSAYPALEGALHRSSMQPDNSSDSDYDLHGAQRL

[5] = biological target: T1, human CD5 cell differentiation marker; assay: FACS-based competitive assay, experiment 2; reference mouse H65 = 100%
[6] = biological target: T1, human CD5 cell differentiation marker; assay: FACS-based competitive assay, experiment 3; reference mouse H65 = 100%
[7] = biological target: T1, human CD5 cell differentiation marker; assay: competition with 0.1 nM ^125I-cH65 IgG on Molt-4M cells, fitted with MacLigand
Procedure: Competitive binding was performed as follows: 100 μl of Molt-4M cells were washed two times in ice-cold DHB binding buffer (Dubellco's modified Eagle's medium (Gibco, 320-1965PJ), 1.0% BSA and 10 mM Hepes at pH 7.2.-7.4). Cells were resuspended in the same buffer, plated into 96 v-bottomed wells (Costar) at 3×10⁵ cells per well and pelleted at 4° C. by centrifugation for 5 min at 1,000 rpm using a Beckman JS 4.2 rotor; 50 μl of 2×-concentrated 0.1 nM ¹²⁵I-cH65 IgG in DHB was then added to each well and competed with 50 μl of 2×-concentrated cH65 IgG or humanized antibody in DHB at final antibody concentrations from 100 nM to 0.0017 nM. Humanized antibody was obtained from culture supernatants of Sp2/0 clone C1718 which expresses he3 IgG. The concentration of the antibody in the supernatants was established by ELISA using a chimeric antibody as a standard. The concentration of the antibody in the purified preparation was determined by […] to proceed at 4° C. for 5 hrs and was terminated by washing cells three times with 200 Al of DHB binding buffer by centrifugation for 5 min at 1,000 rpm. All buffers and operations were at 4° C. Radioactivity was determined by solubilizing cells in 100 μl of 1.0 M NaOH and counting in a Cobra II auto gamma counter (Packard). Data from binding experiments were analyzed by the weighted nonlinear least squares curve fitting program, MacLigand, a Macintosh version of the computer program “Ligand” from Munson, Analyt. Biochem., 107:220 (1980). Objective statistical criteria (F, test, extra sum squares principle) were used to evaluate goodness of fit and for discriminating between models. Nonspecific binding was treated as a parameter subject to error and was fitted simultaneously with other parameters.

[8] = biological target: T1, human CD5 cell differentiation marker; assay: FACS-based competitive assay, mean of 3 experiments ± SD; reference mouse H65 = 100%

Chain of rat CD5 antigen present on rat T cells (rat) (P51882 24-491): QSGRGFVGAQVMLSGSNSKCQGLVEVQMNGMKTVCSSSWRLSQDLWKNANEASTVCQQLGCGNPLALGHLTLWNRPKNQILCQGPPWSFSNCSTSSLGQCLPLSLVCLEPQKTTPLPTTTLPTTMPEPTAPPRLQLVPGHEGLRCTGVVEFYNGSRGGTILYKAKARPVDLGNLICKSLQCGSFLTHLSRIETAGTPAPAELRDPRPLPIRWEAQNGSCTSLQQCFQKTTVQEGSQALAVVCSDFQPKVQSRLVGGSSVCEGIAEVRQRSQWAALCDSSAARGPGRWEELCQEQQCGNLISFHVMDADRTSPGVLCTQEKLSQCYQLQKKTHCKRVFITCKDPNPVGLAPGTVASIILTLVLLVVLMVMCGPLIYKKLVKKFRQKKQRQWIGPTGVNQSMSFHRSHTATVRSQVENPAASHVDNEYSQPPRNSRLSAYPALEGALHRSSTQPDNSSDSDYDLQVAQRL

With OX19 MoAb (antibody) the % of CD4 cells positive for surface-bound mouse IgG1 (CD4/mIgG1) [1] was 96.2%, the % of CD8 cells positive for surface-bound mouse IgG1 (CD8/mIgG1) [1] was 70.2% and the % of CD4 cells positive for surface-bound mouse IgG1 (CD4/mIgG1) [2] was 84.8%. The % of CD8 cells positive for surface-bound mouse IgG1 (CD8/mIgG1) [2] was 73.6%, the % of CD4 cells positive for surface-bound mouse IgG1 (CD4/mIgG1) [3] was 96.2% and the % of CD8 cells positive for surface-bound mouse IgG1 (CD8/mIgG1) [3] was 96.8%.

B1: chimeric H65 IgG (antibody, V domains shown)
VH: QIQLVQSGPELKKPGETVKISCKASGYTFTNYGMNWVKQAPGKGLRWMGWINTHTGEPTYADDFKGRFAFSLETSASTAYLQINNLKNEDTATYFCTRRGYDWYFDVWGAGTTVTVSS
VL: DIKMTQSPSSMYASLGERVTITCKASQDINSYLSWFQQKPGKSPKTLIYRANRLVDGVPSRFSGSGSGQDYSLTISSLDYEDMGIYYCQQYDESPWTFGGGTKLEIK
notes: Light and heavy chain each consist of unmodified mouse V/J-segments fused to a human C-segment (human kappa / human gamma by the ELISA used); also called purified cH65 IgG
For B1, the “cH65 Affinity Relative to H65 (100%)” value [4] was 113%, the “cH65 Affinity Relative to H65 (100%)” value [5] was 106% and the “cH65 Affinity Relative to H65 (100%)” value [6] was 96.3%. The Kd [7] was 2.3 nM and the “cH65 Affinity Relative to H65 (100%)” value [8] was 105%.

B2: chimeric H65 Fab (Fab, V domains shown)
VH: B1 VH
VL: B1 VL
notes: Fab of the chimeric H65 antibody; also called Chimeric Fab
Work on B2 yielded a Kd [7] of 18.4 nM.

B3: low risk humanized H65 (he1) IgG (antibody, V domains shown)
VH: QIQLVQSGPGLKKPGGSVRISCAASGYTFTNYGMNWVKQAPGKGLRWMGWINTHTGEPTYADDFKGRFTFSLDTSKSTAYLQINSLRAEDTATYFCTRRGYDWYFDVWGQGTTVTVSS
VL: B1 VL with K3Q, Y12S, E17D, K24R, Q69T, S72T, D79Q, M83F
notes: Whole IgG with human constant regions (detected with anti-human kappa and anti-human gamma), expressed transiently in CHO-K1; also called he1 H65 antibody; hH65
Molecule B3 has a Kd [7] of 2.1 nM.

B4: low-risk he1 Fab (Fab, V domains shown)
VH: B3 VH
VL: B1 VL with K3Q, Y12S, E17D, K24R, Q69T, S72T, D79Q, M83F
notes: also called hel Fab; Low-Risk Fab
For B4, the Kd [7] was 14.3 nM.

B5: he3 Fab (Fab, V domains shown)
VH: B3 VH with Q1E, P9G, K12V, K38R, R46E, D63S, T74D, S77N, T93V
VL: DIQMTQSPSSLSASVGDRVTITCRASQDINSYLSWFQQKPGKAPKTLIYRANRLESGVPSRFSGSGSGTDYTLTISSLQYEDFGIYYCQQYDESPWTFGGGTKLEIK
notes: Fab (he3 kappa and Fd) expressed in E. coli E104 from pING4628; also called Moderate-Risk Fab
With B5 the Kd [7] was 2.2 nM.

From US20030229207A1 (published 2003)
